Patent US20180362585A1 (Bicycle, published 2018)
Numbered stars: 1 amine (or outer) side, 2 acyl side, 3 side chain; on linkers, the order of the positions; unused ones are H or OH. Bridge positions count the residues as written; N and C are the ends. Ends that are not written are not given here. TBMB = c1c(C[*:1])cc(C[*:3])cc1C[*:2]

B1: CDWPARCMHQEFC (peptide)
peptide: CDWPARCMHQEFC
modifications: linker 1-7-13 via TBMB
notes: on phage
B2: CTWPARCLHQDLC (peptide)
peptide: CTWPARCLHQDLC
modifications: linker 1-7-13 via TBMB
notes: on phage
B3: CSWPARCVHQDMC (peptide)
peptide: CSWPARCVHQDMC
modifications: linker 1-7-13 via TBMB
notes: on phage
B4: CAWPARCLHQDWC (peptide)
peptide: CAWPARCLHQDWC
modifications: linker 1-7-13 via TBMB
notes: on phage
B5: CSWPARCTHTELC (peptide)
peptide: CSWPARCTHTELC
modifications: linker 1-7-13 via TBMB
notes: on phage
B6: CSWPARCLHTELC (peptide)
peptide: CSWPARCLHTELC
modifications: linker 1-7-13 via TBMB
notes: on phage
B7: CTWPARCLHQHMC (peptide)
peptide: CTWPARCLHQHMC
modifications: linker 1-7-13 via TBMB
notes: on phage
B8: CAWPARCTHADLC (peptide)
peptide: CAWPARCTHADLC
modifications: linker 1-7-13 via TBMB
notes: on phage
B9: CTWPARCTHTDMC (peptide)
peptide: CTWPARCTHTDMC
modifications: linker 1-7-13 via TBMB
notes: on phage
B10: CSWPARCTHADLC (peptide)
peptide: CSWPARCTHADLC
modifications: linker 1-7-13 via TBMB
notes: on phage
B11: CAWPARCTHYDLC (peptide)
peptide: CAWPARCTHYDLC
modifications: linker 1-7-13 via TBMB
notes: on phage
B12: CSFMYKCTHQDLC (peptide)
peptide: CSFMYKCTHQDLC
modifications: linker 1-7-13 via TBMB (inferred)
notes: on phage
B13: CPWPARCTHQNLC (peptide)
peptide: CPWPARCTHQNLC
modifications: linker 1-7-13 via TBMB (inferred)
notes: on phage
B14: CSFPYRCTHQDLC (peptide)
peptide: CSFPYRCTHQDLC
modifications: linker 1-7-13 via TBMB (inferred)
notes: on phage
B15: CPWPARCTHQDLC (peptide)
peptide: CPWPARCTHQDLC
modifications: linker 1-7-13 via TBMB (inferred)
notes: on phage
B16: CSFPFWCTHQDLC (peptide)
peptide: CSFPFWCTHQDLC
modifications: linker 1-7-13 via TBMB (inferred)
notes: on phage
B17: CMWPARCMHQDLC (peptide)
peptide: CMWPARCMHQDLC
modifications: linker 1-7-13 via TBMB (inferred)
notes: on phage
B18: CAWPARCTHTDLC (peptide)
peptide: CAWPARCTHTDLC
modifications: linker 1-7-13 via TBMB
notes: on phage
B19: CEWPARCLHTDLC (peptide)
peptide: CEWPARCLHTDLC
modifications: linker 1-7-13 via TBMB
notes: on phage
B20: CLWPARCTHADLC (peptide)
peptide: CLWPARCTHADLC
modifications: linker 1-7-13 via TBMB
notes: on phage
B21: CRWPARCTHTDLC (peptide)
peptide: CRWPARCTHTDLC
modifications: linker 1-7-13 via TBMB (inferred)
notes: on phage
B22: CSFPYKCTHQDLC (peptide)
peptide: CSFPYKCTHQDLC
modifications: linker 1-7-13 via TBMB (inferred)
notes: on phage
B23: CTWPARCTHTDLC (peptide)
peptide: CTWPARCTHTDLC
modifications: linker 1-7-13 via TBMB
notes: on phage
B24: CSFPIRCTHQDLC (peptide)
peptide: CSFPIRCTHQDLC
modifications: linker 1-7-13 via TBMB (inferred)
notes: on phage
B25: CSWPARCTHSDLC (peptide)
peptide: CSWPARCTHSDLC
modifications: linker 1-7-13 via TBMB
notes: on phage
B26: CHWPARCTHQDLC (peptide)
peptide: CHWPARCTHQDLC
modifications: linker 1-7-13 via TBMB
notes: on phage
B27: CAWPARCTHVDLC (peptide)
peptide: CAWPARCTHVDLC
modifications: linker 1-7-13 via TBMB
notes: on phage
B28: CLWPARCTHQDLC (peptide)
peptide: CLWPARCTHQDLC
modifications: linker 1-7-13 via TBMB
notes: on phage
B29: CNWPARCTHQDLC (peptide)
peptide: CNWPARCTHQDLC
modifications: linker 1-7-13 via TBMB (inferred)
notes: on phage
B30: CQWPARCTHSDLC (peptide)
peptide: CQWPARCTHSDLC
modifications: linker 1-7-13 via TBMB (inferred)
notes: on phage
B31: CVWPARCTHQDLC (peptide)
peptide: CVWPARCTHQDLC
modifications: linker 1-7-13 via TBMB
notes: on phage
B32: CPWPARCTHTDLC (peptide)
peptide: CPWPARCTHTDLC
modifications: linker 1-7-13 via TBMB (inferred)
notes: on phage
B33: CAWPARCTHTHLC (peptide)
peptide: CAWPARCTHTHLC
modifications: linker 1-7-13 via TBMB
notes: on phage
B34: CAWPARCTHTDFC (peptide)
peptide: CAWPARCTHTDFC
modifications: linker 1-7-13 via TBMB
notes: on phage
B35: CRWPARCTHQDLC (peptide)
peptide: CRWPARCTHQDLC
modifications: linker 1-7-13 via TBMB (inferred)
notes: on phage
B36: CHWPARCTHQELC (peptide)
peptide: CHWPARCTHQELC
modifications: linker 1-7-13 via TBMB
notes: on phage
B37: CSFPFKCTHQDLC (peptide)
peptide: CSFPFKCTHQDLC
modifications: linker 1-7-13 via TBMB (inferred)
notes: on phage
B38: CRFPFKCTHQDLC (peptide)
peptide: CRFPFKCTHQDLC
modifications: linker 1-7-13 via TBMB (inferred)
notes: on phage
B39: CSFPWRCTHQDLC (peptide)
peptide: CSFPWRCTHQDLC
modifications: linker 1-7-13 via TBMB (inferred)
notes: on phage
B40: CSWPARCTHSHLC (peptide)
peptide: CSWPARCTHSHLC
modifications: linker 1-7-13 via TBMB
notes: on phage
B41: CTWPARCTHADLC (peptide)
peptide: CTWPARCTHADLC
modifications: linker 1-7-13 via TBMB
notes: on phage
B42: CPWPARCLHTDLC (peptide)
peptide: CPWPARCLHTDLC
modifications: linker 1-7-13 via TBMB (inferred)
notes: on phage
B43: CHWPARCMHQDLC (peptide)
peptide: CHWPARCMHQDLC
modifications: linker 1-7-13 via TBMB
notes: on phage
B44: CSFLYKCTHQDLC (peptide)
peptide: CSFLYKCTHQDLC
modifications: linker 1-7-13 via TBMB (inferred)
notes: on phage
B45: CSWPARCIHQDLC (peptide)
peptide: CSWPARCIHQDLC
modifications: linker 1-7-13 via TBMB
notes: on phage
B46: CQWPARCMHQDMC (peptide)
peptide: CQWPARCMHQDMC
modifications: linker 1-7-13 via TBMB (inferred)
notes: on phage
B47: CAWPARCTHQTMC (peptide)
peptide: CAWPARCTHQTMC
modifications: linker 1-7-13 via TBMB
notes: on phage
B48: CAWPARCMHDDLC (peptide)
peptide: CAWPARCMHDDLC
modifications: linker 1-7-13 via TBMB
notes: on phage
B49: CTWPARCTHQAFC (peptide)
peptide: CTWPARCTHQAFC
modifications: linker 1-7-13 via TBMB
notes: on phage
B50: CSWPARCTHAEMC (peptide)
peptide: CSWPARCTHAEMC
modifications: linker 1-7-13 via TBMB
notes: on phage
B51: CQWPARCMHQELC (peptide)
peptide: CQWPARCMHQELC
modifications: linker 1-7-13 via TBMB (inferred)
notes: on phage
B52: CAWPARCLHADMC (peptide)
peptide: CAWPARCLHADMC
modifications: linker 1-7-13 via TBMB
notes: on phage

Tests used:
human plasma Kallikrein [1] = target: T1, human plasma Kallikrein (human, UniProt P03952 20-638); assay: phage binding assay
T1 construct: also called hPK; human PK
T1 sequence (P03952 20-638 limits assumed): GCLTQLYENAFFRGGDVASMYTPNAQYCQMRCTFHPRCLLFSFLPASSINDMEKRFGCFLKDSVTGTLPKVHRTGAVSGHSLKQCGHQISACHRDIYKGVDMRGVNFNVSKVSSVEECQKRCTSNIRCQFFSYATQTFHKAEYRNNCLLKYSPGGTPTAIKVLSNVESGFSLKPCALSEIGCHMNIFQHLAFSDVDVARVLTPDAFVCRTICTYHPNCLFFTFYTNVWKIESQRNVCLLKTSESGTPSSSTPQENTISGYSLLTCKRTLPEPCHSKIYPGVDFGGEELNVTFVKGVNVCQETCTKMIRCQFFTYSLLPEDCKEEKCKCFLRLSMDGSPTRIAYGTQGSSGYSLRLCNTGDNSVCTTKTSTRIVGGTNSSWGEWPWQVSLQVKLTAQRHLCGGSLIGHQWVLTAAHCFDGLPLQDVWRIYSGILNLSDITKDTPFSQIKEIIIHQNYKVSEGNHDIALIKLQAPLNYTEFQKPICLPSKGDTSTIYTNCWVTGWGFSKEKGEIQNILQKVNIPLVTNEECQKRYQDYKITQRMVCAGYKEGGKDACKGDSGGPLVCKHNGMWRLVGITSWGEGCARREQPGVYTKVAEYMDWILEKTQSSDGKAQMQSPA

human plasma Kallikrein [2] = target: T1, human plasma Kallikrein; assay: phage binding assay; remark: listed apart in the source
Protocol: Library transformant colonies, or selection output colonies, were picked and grown as individual cultures in 2TY broth containing selective antibiotic. The picked colonies were DNA-sequenced using a QIAgen PyroMark Q96 DNA sequencer to reveal the amino-acid substitution present in each clone, and were assayed for human plasma Kallikrein binding as follows. The phage-containing supernatant was harvested from the culture and phage were cyclised with tris bromomethyl benzene (TBMB) based on the methods of Heinis et al (Nature Chemical Biology vol. 5 pp 502-507 (2009)). The purified phage from this process were assayed for binding to biotinylated human plasma Kallikrein using a homogeneous plate-based binding assay; assay read-out measured on a BMG Labtech Pherastar FS plate reader. The quantitative binding data from duplicate assay samples was averaged (mean) and expressed as signal:background. […] The assay data was correlated with the peptide sequences.
Selections against human plasma Kallikrein were performed at a variety of stringencies (see Phage selections' in Methods above). All output sequences were identified and analysed for target binding (see ‘Randomisation of peptide domains—Assay of binding of individual clones’ in Methods above). Table 17 lists each unique sequence, its relative abundance in the selection output (frequency), and a rank number according to target binding strength.

Binder	BINDING ASSAY SIGNAL (human plasma Kallikrein [1])	RANK (Kallikrein binding) (human plasma Kallikrein [2])
B1	63	–
B2	73	–
B3	61	–
B4	63	–
B5	69	–
B6	68	–
B7	61	–
B8	79	–
B9	67	–
B10	100	–
B11	70	–
B12	–	37
B13	69	–
B14	–	5
B15	107	–
B16	–	34
B17	79	–
B18	92	–
B19	60	–
B20	74	–
B21	59	–
B22	–	22
B23	88	–
B24	–	15
B25	59	–
B26	110	–

Binder	BINDING ASSAY SIGNAL (human plasma Kallikrein [1])	RANK (Kallikrein binding) (human plasma Kallikrein [2])
B27	82	–
B28	90	–
B29	116	–
B30	74	–
B31	71	–
B32	70	–
B33	66	–
B34	80	–
B35	73	–
B36	85	–
B37	–	6
B38	–	11
B39	–	23
B40	72	–
B41	71	–
B42	58	–
B43	71	–
B44	–	29
B45	68	–
B46	75	–
B47	61	–
B48	69	–
B49	59	–
B50	59	–
B51	73	–
B52	66	–
